Measured values reported in article PMC11519345, “Structural variation of types IV-A1- and IV-A3-mediated CRISPR interference”.
Values belong to the molecule of their own block, whether it stands above or below them.

Tests used:
[1] = target: Type IV-A3 effector complex (Cas5-Cas8-Cas7-Cas6 crRNP), DinG-free (Klebsiella pneumoniae) (UniProt A0A8G1XN67+A0A7Z7WW72+A0A333ESG5); experiment: EMSA; details: crRNA; EMSA: 10 mM HEPES pH 7.5, 150 mM NaCl, 1 nM DNA, on ice then 20 min RT, 6% native PAGE in TBE at 4 C; cryo-EM: 10 uM complex + 15 uM DNA in the same buffer …; scale: fold tighter than type IV-A1 complex on its target
[2] = target: type IV-A1 Cas7 (Csf2) from Pseudomonas oleovorans (Pseudomonas oleovorans); experiment: cryo-EM structure; type IV-A1 effector complex (10 µM) reconstituted with bubbled target dsDNA (15 µM) in 10 mM HEPES-Na pH 7.5, 150 mM NaCl, then SEC; particle class without DinG
[3] = target: type IV-A3 Cas7 (Csf2) from Klebsiella pneumoniae (Klebsiella pneumoniae); experiment: cryo-EM structure; type IV-A3 effector complex (10 µM) reconstituted with bubbled target dsDNA (15 µM) in 10 mM HEPES-Na pH 7.5, 150 mM NaCl, then SEC; without DinG
[4] = target: T1, Type IV-A1 effector complex (Cas5-Cas8-Cas7-Cas6 crRNP), DinG-free (Pseudomonas oleovorans, UniProt A0A379PL53;A0A379PIR4;A0A379PIR9;A0A379PNK2 1-222;1-240;1-347;1-236); experiment: cryo-EM; crRNA; no DinG; 3.0 A; PDB code not assigned in the material (8RC2/8RC3/8RFJ); EMSA: 10 mM HEPES pH 7.5, 150 mM NaCl, 1 nM DNA, on ice then 20 min RT, 6% native PAGE in TBE at 4 C; cryo-EM: 10 uM complex + 15 uM DNA in the same buffer, 10; details: protein: recombinant; tags: His6 C-terminal on Cas8; copies: 1;1;5;1; bubble: non-complementary protospacer, paired 15 nt and 14+ nt ends
T1 sequence 1: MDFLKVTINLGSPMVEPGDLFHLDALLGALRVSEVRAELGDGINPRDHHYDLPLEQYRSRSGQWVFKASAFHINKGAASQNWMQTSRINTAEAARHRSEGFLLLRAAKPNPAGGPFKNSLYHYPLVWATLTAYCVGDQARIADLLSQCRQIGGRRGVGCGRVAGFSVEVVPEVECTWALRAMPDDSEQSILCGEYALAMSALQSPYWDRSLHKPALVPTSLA
T1 sequence 2: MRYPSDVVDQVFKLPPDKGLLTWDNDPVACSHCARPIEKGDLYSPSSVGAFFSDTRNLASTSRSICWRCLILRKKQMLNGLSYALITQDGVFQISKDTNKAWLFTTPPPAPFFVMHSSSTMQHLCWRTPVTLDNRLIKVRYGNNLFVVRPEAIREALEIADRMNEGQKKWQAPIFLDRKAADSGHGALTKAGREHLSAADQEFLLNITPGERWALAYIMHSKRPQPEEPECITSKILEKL
T1 sequence 3: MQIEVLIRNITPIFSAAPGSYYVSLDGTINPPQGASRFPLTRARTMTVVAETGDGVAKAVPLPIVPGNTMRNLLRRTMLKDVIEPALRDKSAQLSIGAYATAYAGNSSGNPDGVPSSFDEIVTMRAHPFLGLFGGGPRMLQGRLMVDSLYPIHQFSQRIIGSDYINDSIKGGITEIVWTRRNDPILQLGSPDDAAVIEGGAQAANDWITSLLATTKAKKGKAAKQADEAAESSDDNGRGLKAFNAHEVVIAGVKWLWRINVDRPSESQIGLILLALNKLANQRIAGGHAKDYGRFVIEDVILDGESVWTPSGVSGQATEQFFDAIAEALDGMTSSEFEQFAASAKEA
T1 sequence 4: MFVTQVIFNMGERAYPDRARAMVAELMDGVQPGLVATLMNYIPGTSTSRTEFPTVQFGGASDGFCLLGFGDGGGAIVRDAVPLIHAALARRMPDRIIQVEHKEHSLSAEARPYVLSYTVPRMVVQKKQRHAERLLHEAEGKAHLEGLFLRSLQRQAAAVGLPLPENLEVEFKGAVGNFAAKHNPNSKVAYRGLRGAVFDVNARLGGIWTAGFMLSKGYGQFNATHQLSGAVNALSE

Molecule: IV-A3 EMSA target, no mismatch
binding signal [1]: 10

stoichiometry N [2]: 5
Molecule: type IV-A1 Cas7 (Csf2) from Pseudomonas oleovorans (natural protein)

stoichiometry N [3]: 6
Molecule: type IV-A3 Cas7 (Csf2) from Klebsiella pneumoniae (natural protein)

B1: Type IV-A1 bubbled target DNA (TS/NTS) for cryo-EM (dsDNA)
DNA 1: CGGTCGGGTCATACGTCGCGTCTCGAATCTGATGCGTAACTTGGATGCTTCGTGCGTGATG
DNA 2: CATCACGCACGAAGACCAAGTCAATGCTTAGTCTAATACCTGCGCTCGTATGACCCGACCG
binding result [4]: binds
